# Earlier results, collected in PMC8828474.
# Molecular target: Spike RBD (SARS-CoV-2) (UniProt P0DTC2)
substance,measurement,value
bamlanivimab,Kd,800 pM
